Biological target: T1, Soluble CTLA-4-Ig (human, UniProt P16410 36-161, FITC-conjugated in the two-colour FACS assays; unlabelled and detected with FITC goat anti-human IgG in the concentration-dependent assay)
T1 construct: extracellular domain; Bought from R&D Systems; also called sCTLA-4-Ig; CTLA-4-Ig Fc; not shown: Fc portion of human IgG1
Experiment: two-colour FACS profile on transfected cells; score of preference for CTLA-4-Ig over CD28-Ig vs WT hB7-1

T1 sequence (P16410 36-161): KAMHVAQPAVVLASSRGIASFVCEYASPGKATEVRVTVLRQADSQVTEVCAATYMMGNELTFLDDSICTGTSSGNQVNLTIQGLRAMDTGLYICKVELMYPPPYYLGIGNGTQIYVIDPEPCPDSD

Row | Binding Score | Binder
1 | 2 | Round 2 CTLA4BP 5x4-h1 (ligand) VIHVTKEVKEVATLSCGHNVSVEELAQTRIHWQKEKKMVLTMMSGDMNIWPEYKNRTIFDITNNLSIVILALRPSDEGTYECVVLKYEKDAFKRKHLAEVMLSVKADFPTPSISDFEIPTSNIRRIICSTSGGFPEPHLFWLENGEELNAINTTASQDPETELYTVSSKLDFNMTTNRSFVCLIKYGHLRVNQTFNWNTPKQEHFPNNLLPSWAITLISVNGIFVICCLTYCFAPRCRERRRNETLRRESVHPV
2 | 1 | Round 2 CTLA4BP 5x5-c10 (ligand) VIHVTKEVKEVATLSCGHNVSVEELAQTRIYWQKEKKMVLTMMSGDMNIWPEYKNRTIFDITNNLSIVILALRPSDEGTYECVVLEYEKDAFKREHLAEVTLSVKADFPTPSITDFEIPPSNIRRIICSTSGGFPEPHLFWLENGEELNAISTTVSQDPETELYAVSSKLDFNMTTNHSFMCLIKYGHLRVNQTFNWNTTKQEHFPDNLLPSWAITLISVNGIFVICCLTYCFAPRCRERRRNERLRRESVHPV
3 | 1 | Round 2 CTLA4BP 5x6-f6 (ligand) VIHVTKEVKEVATLSCGHNVSVEELAQTPIYWQKEKKMVLTMMSGDMNIWPEYKNRTIFDITNNLSIVILALRPSDEGTYECVVLKYEKDAFKREHLAEVMLSVKADFPTPSITDFEIPPSNIRRIICSTSGGFPEPHLFWLENGEELNAINTTVSQDPETELYTVSSKLDFNMTTNRSFVCLIKYGHLRVNQTFNWNTPKQEHFPDNLLPSWAITLISANGIFVICCLTYRFAPRCRERRRNERLRRESVCPV
4 | 1 | Round 2 CTLA4BP-5X2-12F (ligand) VIHVTKEVKEVATLSCGHNVSVEELAQTRIHWQKEKKMVLTMMSGDMNIWPEYKNRTIFDITNNLSIVILALRPSDEGTYECVVLKYEKDAFKREHLAEVTLSVKADFPTPSITDFEIPPSNIKRIICSTSGGFPEPHLSWLENGEELNAINTTVSQDPETELYTVSSKLDFNMTTNHSFMCLIKYGHLRVNQTFNWNTPKQEHFPDNPLPSWAITLISANGIFVICCLTYCFAPRCRERRRNETLRRESVRPV
5 | 1 | Round 2 CTLA4BP 5x9-d10 (ligand) VIHVTKEVKEVATLSCGLNVSVEELAQTRIYWQKGKKMVLTMMSGDMNIWPEYKNRTIFDITNNLSIVILALRPSDEGTYECVVLEYEKDAFKREHLAEVMLSVKADFPTPSISDFEIPPSNIRRIICSTSGGFPEPHLSWLENGEELNAINTTASQDPGTELYTVSSKLDFNMTTNHSFMCLIKYGHLRVNQTFNWNTPKQEHFPDNLLPSWAITLISVNGIFVICCLTHCFAPRCRERRRNERLRRESARPV
6 | 2 | Round 2 CTLA4BP-5x2-2g (ligand) VIHVTKEVKEVATLSCGHNVSVEELAQTRIHWQKEKKMVLTMMSGDMNIWPEYKNRTIFDITNNLSIVILALRPSDEGTYECVVLKYEKDAFKREHLAEVMLSVKADFPTPSITDFEIPTSNIRRIICSTSGGFPEPHLSWLENGEELNAINTTVSQDPETELYTVSSKLDFNMTTNHSFMCLIKYGHLRVNQTFNWNTPKQEHFPDNLLPSWAITLISVNGIFVICCLTYRFAPRCRERKSNERLRRESVRPV
7 | 1 | Round 2 CTLA4BP 5x5-h12 (ligand) VIHVTKKVKEVATLSCGHNVSVEELAQTRIHWQKEKKMVLTMMSGDMNIWPEYKNRTIFDITNNLSIVILALRPSDEGTYECVVLKYEKDAFKREHLAEVMLSVKADFPTPSISDFEIPPSNIRRIICSTSGGFPEPHLSWLENGEELNAINTTVSQDPGTELYTVSSKLDFNMTTDRSFVCLIKYGHLRVNQTFNWNTPKQEHFPDNLLPSWAITLISVNGIFVICCLTYCFAPRCRERRRNGRLRRESVRPV
8 | 2 | Round 2 CTLA4BP-5x2-3c (ligand) VIHVTREVKEVATLSCGHNVSVEELAQTRIHWQKEKKMVLTMMSGDMNIWPEYKNRTIFDITNNLSIVILALRPSDEGTYECVVLKYEKDAFKREHLAEVMLSVKADFPTPSISDFEIPTSNIRRIICSTSGGFPEPHLSWLENGEELNAINTTVSQDPETGLYTVSSKLDFNMTTNHSFMCLIKYGHLRVNQTFNWNTPKQEHFPDNLLPSWAITLISVNGIFVICCLTYCFAPRCRERRRNERLRRESVCPV
